{
  "source": "patent US20210132079A1",
  "about": "(UCB, published 2021)",
  "binders": {"B1": {"name": "CA185_01979 mouse IgG1 (mIgG1, kappa) (antibody, V domains shown)", "VH": "EVHLVESGPGLVKPSQSLSLTCSVTGYSITNSYWDWIRKFPGNKMEWMGYINYSGSTGYNPSLKSRISISRDTSNNQFFLQLNSITTEDTATYYCARGTYGYNAYHFDYWGRGVMVTVSS", "VL": "DIQMTQSPASLSASLEEIVTITCQASQDIGNWLSWYQQKPGKSPHLLIYGTTSLADGVPSRFSGSRSGTQYSLKISGLQVADIGIYVCLQAYSTPFTFGSGTKLEIKR", "notes": "also called CA185_01979.0; VR0001842"}},
  "key": {"[1]": {"target": "T1, human TNFα in complex with compound (1) (human, UniProt P01375 77-233)", "T1 construct": "also called human TNFα + compound (1); TNFα-compound (1) complex", "T1 sequence (P01375 77-233 limits assumed, one chain of several)": "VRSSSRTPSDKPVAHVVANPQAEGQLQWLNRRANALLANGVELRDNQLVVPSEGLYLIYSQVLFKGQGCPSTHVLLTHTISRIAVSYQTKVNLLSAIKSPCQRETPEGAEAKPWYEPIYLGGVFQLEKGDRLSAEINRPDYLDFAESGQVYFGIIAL", "assay": "SPR BIAcore, compound-bound against apo TNFα"}, "[2]": {"target": "T2, human TNFα in complex with compound (2) (human, UniProt P01375 77-233)", "T2 construct": "also called human TNFα + compound (2)", "T2 sequence (P01375 77-233 limits assumed, one chain of several)": "as above", "assay": "SPR BIAcore, compound-bound against apo TNFα"}},
  "data": [
    {"binder": "B1", "values": [
      {"measurement": "log selective binding against apo human TNFα", "setting": "[1]", "result": "> 2", "unit": "log"},
      {"measurement": "log selective binding against apo human TNFα", "setting": "[2]", "result": "> 2", "unit": "log"}
    ]}
  ]
}
